{"source": "the supplement of paper PMC11316812", "key": {"MCF7": {"system": "MCF7", "assay": "percentage of EdU-negative (G0-arrested) nuclei per well, 72 h; higher = more G0 arrest", "conditions": "reference: sequence is the full UniProt precursor, the tested protein was the secreted form or ectodomain"}, "hTERT-HMEC": {"system": "hTERT-HMEC", "assay": "percentage of EdU-negative (G0-arrested) nuclei per well, 72 h; higher = more G0 arrest", "conditions": "reference: sequence is the full UniProt precursor, the tested protein was the secreted form or ectodomain"}, "[1]": {"conditions": "protein concentration 0.0199575 µM"}, "[2]": {"conditions": "protein concentration 0.03125 µM"}, "[3]": {"conditions": "protein concentration 0.199575 µM"}, "[4]": {"conditions": "protein concentration 0.3125 µM"}, "[5]": {"conditions": "protein concentration 0.0194286 µM"}, "[6]": {"conditions": "protein concentration 0.194286 µM"}, "[7]": {"conditions": "protein concentration 0.0225 µM"}, "[8]": {"conditions": "protein concentration 0.03025 µM"}, "[9]": {"conditions": "protein concentration 0.3025 µM"}, "[10]": {"conditions": "protein concentration 0.0059525 µM"}, "[11]": {"conditions": "protein concentration 0.059525 µM"}}, "note": "± gives the standard deviation of the averaged measurements.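 Note: secreted proteins added to cultured cells, EdU pulse at the end, nuclei found by Hoechst imaging, EdU status from nuclear versus surrounding ring intensity ratio, PBS as neutral control.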"}
{"sequence": "MGTTARAALVLTYLAVASAASEGGFTATGQRQLRPEHFQEVGYAAPPSPPLSRSLPMDHPDSSQHGPPFEGQSQVQPPPSQEATPLQQEKLLPAQLPAEKEVGPPLPQEAVPLQKELPSLQHPNEQKEGTPAPFGDQSHPEPESWNAAQHCQQDRSQGGWGHRLDGFPPGRPSPDNLNQICLPNRQHVVYGPWNLPQSSYSHLTRQGETLNFLEIGYSRCCHCRSHTNRLECAKLVWEEAMSRFCEAEFSVKTRPHWCCTRQGEARFSCFQEEAPQPHYQLRACPSHQPDISSGLELPFPPGVPTLDNIKNICHLRRFRSVPRNLPATDPLQRELLALIQLEREFQRCCRQGNNHTCTWKAWEDTLDKYCDREYAVKTHHHLCCRHPPSPTRDECFARRAPYPNYDRDILTIDIGRVTPNLMGHLCGNQRVLTKHKHIPGLIHNMTARCCDLPFPEQACCAEEEKLTFINDLCGPRRNIWRDPALCCYLSPGDEQVNCFNINYLRNVALVSGDTENAKGQGEQGSTGGTNISSTSEPKEE", "values": [{"measurement": "percentage of EdU-negative", "setting": "MCF7; [1]", "value": "23.4 ± 2", "unit": "%"}, {"measurement": "percentage of EdU-negative", "setting": "MCF7; [2]", "value": "25.6 ± 1.1", "unit": "%"}, {"measurement": "percentage of EdU-negative", "setting": "MCF7; [3]", "value": "25.7 ± 1.2", "unit": "%"}, {"measurement": "percentage of EdU-negative", "setting": "MCF7; [4]", "value": "26 ± 1.7", "unit": "%"}, {"measurement": "percentage of EdU-negative", "setting": "hTERT-HMEC; [1]", "value": "5.01 ± 0.46", "unit": "%"}, {"measurement": "percentage of EdU-negative", "setting": "hTERT-HMEC; [2]", "value": "4.52 ± 0.66", "unit": "%"}, {"measurement": "percentage of EdU-negative", "setting": "hTERT-HMEC; [3]", "value": "5.74 ± 0.78", "unit": "%"}, {"measurement": "percentage of EdU-negative", "setting": "hTERT-HMEC; [4]", "value": "5.29 ± 0.63", "unit": "%"}]}
{"sequence": "MGVAARPPALRHWFSHSIPLAIFALLLLYLSVRSLGARSGCGPRAQPCVPGETAPFQVRQESGTLEAPERKQPPCLGPRGMLGRMMRRFHASLKPEGDVGLSPYLAGWRALVEFLTPLGSVFAFATREAFTKVTDLEARVHGPDAEHYWSLVAMAAWERRAGLLEQPGAAPRDPTRSSGSRTLLLLHRALRWSQLCLHRVATGALGGPDAGVQCSDAYRAALGPHHPWLVRQTARLAFLAFPGRRRLLELACPGATEAEARAALVRAAGTLEDVYNRTQSLLAERGLLQLA [A6NH11]", "values": [{"measurement": "percentage of EdU-negative", "setting": "MCF7; [5]", "value": "23.4 ± 0.51", "unit": "%"}, {"measurement": "percentage of EdU-negative", "setting": "MCF7; [6]", "value": "25.5 ± 2.7", "unit": "%"}, {"measurement": "percentage of EdU-negative", "setting": "hTERT-HMEC; [5]", "value": "5.02 ± 1.8", "unit": "%"}, {"measurement": "percentage of EdU-negative", "setting": "hTERT-HMEC; [6]", "value": "5.53 ± 0.54", "unit": "%"}]}
{"sequence": "MGVCGYLFLPWKCLVVVSLRLLFLVPTGVPVRSGDATFPKAMDNVTVRQGESATLRCTIDDRVTRVAWLNRSTILYAGNDKWSIDPRVIILVNTPTQYSIMIQNVDVYDEGPYTCSVQTDNHPKTSRVHLIVQVPPQIMNISSDITVNEGSSVTLLCLAIGRPEPTVTWRHLSVKEGQGFVSEDEYLEISDIKRDQSGEYECSALNDVAAPDVRKVKITVNYPPYISKAKNTGVSVGQKGILSCEASAVPMAEFQWFKEETRLATGLDGMRIENKGRMSTLTFFNVSEKDYGNYTCVATNKLGNTNASITLYGPGAVIDGVNSASRALACLWLSGTLLAHFFIKF", "values": [{"measurement": "percentage of EdU-negative", "setting": "MCF7; [7]", "value": "23.9 ± 0.79", "unit": "%"}, {"measurement": "percentage of EdU-negative", "setting": "MCF7; protein concentration 0.225 µM", "value": "23.8 ± 1.2", "unit": "%"}, {"measurement": "percentage of EdU-negative", "setting": "hTERT-HMEC; [7]", "value": "4.81 ± 0.74", "unit": "%"}, {"measurement": "percentage of EdU-negative", "setting": "hTERT-HMEC; protein concentration 0.225 µM", "value": "5.39 ± 1.6", "unit": "%"}]}
{"sequence": "MGVCGYLFLPWKCLVVVSLRLLFLVPTGVPVRSGDATFPKAMDNVTVRQGESATLRCTIDNRVTRVAWLNRSTILYAGNDKWCLDPRVVLLSNTQTQYSIEIQNVDVYDEGPYTCSVQTDNHPKTSRVHLIVQVSPKIVEISSDISINEGNNISLTCIATGRPEPTVTWRHISPKAVGFVSEDEYLEIQGITREQSGDYECSASNDVAAPVVRRVKVTVNYPPYISEAKGTGVPVGQKGTLQCEASAVPSAEFQWYKDDKRLIEGKKGVKVENRPFLSKLIFFNVSEHDYGNYTCVASNKLGHTNASIMLFGPGAVSEVSNGTSRRAGCVWLLPLLVLHLLLKF [Q9P121]", "values": [{"measurement": "percentage of EdU-negative", "setting": "MCF7; [8]", "value": "24.73 ± 0.092", "unit": "%"}, {"measurement": "percentage of EdU-negative", "setting": "MCF7; [9]", "value": "28.9 ± 1.9", "unit": "%"}, {"measurement": "percentage of EdU-negative", "setting": "hTERT-HMEC; [8]", "value": "5.01 ± 0.68", "unit": "%"}, {"measurement": "percentage of EdU-negative", "setting": "hTERT-HMEC; [9]", "value": "6.84 ± 0.93", "unit": "%"}]}
{"sequence": "MGVPFFSSLRCMVDLGPCWAGGLTAEMKLLLALAGLLAILATPQPSEGAAPAVLGEVDTSLVLSSMEEAKQLVDKAYKERRESIKQRLRSGSASPMELLSYFKQPVAATRTAVRAADYLHVALDLLERKLRSLWRRPFNVTDVLTPAQLNVLSKSSGCAYQDVGVTCPEQDKYRTITGMCNNRRSPTLGASNRAFVRWLPAEYEDGFSLPYGWTPGVKRNGFPVALARAVSNEIVRFPTDQLTPDQERSLMFMQWGQLLDHDLDFTPEPAARASFVTGVNCETSCVQQPPCFPLKIPPNDPRIKNQADCIPFFRSCPACPGSNITIRNQINALTSFVDASMVYGSEEPLARNLRNMSNQLGLLAVNQRFQDNGRALLPFDNLHDDPCLLTNRSARIPCFLAGDTRSSEMPELTSMHTLLLREHNRLATELKSLNPRWDGERLYQEARKIVGAMVQIITYRDYLPLVLGPTAMRKYLPTYRSYNDSVDPRIANVFTNAFRYGHTLIQPFMFRLDNRYQPMEPNPRVPLSRVFFASWRVVLEGGIDPILRGLMATPAKLNRQNQIAVDEIRERLFEQVMRIGLDLPALNMQRSRDHGLPGYNAWRRFCGLPQPETVGQLGTVLRNLKLARKLMEQYGTPNNIDIWMGGVSEPLKRKGRVGPLLACIIGTQFRKLRDGDRFWWENEGVFSMQQRQALAQISLPRIICDNTGITTVSKNNIFMSNSYPRDFVNCSTLPALNLASWREAS", "values": [{"measurement": "percentage of EdU-negative", "setting": "MCF7; [10]", "value": "24.8 ± 1.3", "unit": "%"}, {"measurement": "percentage of EdU-negative", "setting": "MCF7; [11]", "value": "26.8 ± 0.65", "unit": "%"}, {"measurement": "percentage of EdU-negative", "setting": "hTERT-HMEC; [10]", "value": "5.02 ± 0.23", "unit": "%"}, {"measurement": "percentage of EdU-negative", "setting": "hTERT-HMEC; [11]", "value": "4.74 ± 0.28", "unit": "%"}]}
